Numbered stars: 1 amine (or outer) side, 2 acyl side, 3 side chain; on linkers, the order of the positions; unused ones are H or OH. Bridge positions count the residues as written; N and C are the ends. Square brackets hold non-standard residues; d marks the D form. Ends that are not written are not given here. TATA = O=C(CC[*:1])N1CN(C(=O)CC[*:2])CN(C(=O)CC[*:3])C1; Trp(1-Me) = Cn1cc(C[C@H](N)C(=O)O)c2ccccc21; cisHyp = O=C(O)[C@@H]1C[C@H](O)CN1; Hyp = O=C(O)[C@@H]1C[C@@H](O)CN1; tBuAla = CC(C)(C)C[C@H](N)C(=O)O; Cha = N[C@@H](CC1CCCCC1)C(=O)O; Agb = N=C(N)NCC[C@H](N)C(=O)O; Cba = N[C@@H](CC1CCC1)C(=O)O; Chg = N[C@H](C(=O)O)C1CCCCC1; Tle = CC(C)(C)[C@H](N)C(=O)O; NMeA = CN[C@@H](C)C(=O)O; Nle = CCCC[C@H](N)C(=O)O; Sar = CNCC(=O)O
B1: BCY18309 (peptide)
peptide: ACNLQA[Sar]CMLTGKVCA-NH2
modifications: linker 2-8-15 via TATA; N-terminus assumed
SMILES: CSCC[C@@H]1NC(=O)[C@@H]2CSCCC(=O)N3CN(CN(C3)C(=O)CCSC[C@@H](C(=O)N[C@@H](C)C(N)=O)NC(=O)[C@H](C(C)C)NC(=O)[C@H](CCCCN)NC(=O)CNC(=O)[C@H]([C@@H](C)O)NC(=O)[C@H](CC(C)C)NC1=O)C(=O)CCSC[C@H](NC(=O)[C@H](C)N)C(=O)N[C@@H](CC(N)=O)C(=O)N[C@@H](CC(C)C)C(=O)N[C@@H](CCC(N)=O)C(=O)N[C@@H](C)C(=O)N(C)CC(=O)N2
notes: scaffold TATA
B2: BCY18288 (peptide)
peptide: ACDLTTHNCQ[Trp(1-Me)]GICA-NH2
modifications: linker 2-9-14 via TATA; N-terminus assumed
SMILES: CC[C@H](C)[C@@H]1NC(=O)CNC(=O)[C@H](Cc2cn(C)c3ccccc23)NC(=O)[C@H](CCC(N)=O)NC(=O)[C@@H]2CSCCC(=O)N3CN(CN(C3)C(=O)CCSC[C@@H](C(=O)N[C@@H](C)C(N)=O)NC1=O)C(=O)CCSC[C@H](NC(=O)[C@H](C)N)C(=O)N[C@@H](CC(=O)O)C(=O)N[C@@H](CC(C)C)C(=O)N[C@@H]([C@@H](C)O)C(=O)N[C@@H]([C@@H](C)O)C(=O)N[C@@H](Cc1c[nH]cn1)C(=O)N[C@@H](CC(N)=O)C(=O)N2
notes: scaffold TATA
B3: BCY18324 (peptide)
peptide: ACNLQAPCMLTG[Agb]VCA-NH2
modifications: linker 2-8-15 via TATA; N-terminus assumed
SMILES: CSCC[C@@H]1NC(=O)[C@@H]2CSCCC(=O)N3CN(CN(C3)C(=O)CCSC[C@@H](C(=O)N[C@@H](C)C(N)=O)NC(=O)[C@H](C(C)C)NC(=O)[C@H](CCNC(=N)N)NC(=O)CNC(=O)[C@H]([C@@H](C)O)NC(=O)[C@H](CC(C)C)NC1=O)C(=O)CCSC[C@H](NC(=O)[C@H](C)N)C(=O)N[C@@H](CC(N)=O)C(=O)N[C@@H](CC(C)C)C(=O)N[C@@H](CCC(N)=O)C(=O)N[C@@H](C)C(=O)N1CCC[C@H]1C(=O)N2
notes: scaffold TATA
B4: BCY18315 (peptide)
peptide: ACNLQAPC[Cba]LTGKVCA-NH2
modifications: linker 2-8-15 via TATA; N-terminus assumed
SMILES: CC(C)C[C@@H]1NC(=O)[C@H](CC(N)=O)NC(=O)[C@@H](NC(=O)[C@H](C)N)CSCCC(=O)N2CN3CN(C2)C(=O)CCSC[C@H](NC(=O)[C@@H]2CCCN2C(=O)[C@H](C)NC(=O)[C@H](CCC(N)=O)NC1=O)C(=O)N[C@@H](CC1CCC1)C(=O)N[C@@H](CC(C)C)C(=O)N[C@@H]([C@@H](C)O)C(=O)NCC(=O)N[C@@H](CCCCN)C(=O)N[C@@H](C(C)C)C(=O)N[C@H](C(=O)N[C@@H](C)C(N)=O)CSCCC3=O
notes: scaffold TATA

Target: T1, Human NKp46 Fc tag (Acro Biosystems, NC1-H5257) (human, UniProt O76036 22-255)
T1 construct: bought; also called Fc-tagged human NKp46
Test: SPR Method 1 and/or 2
Protocol: The SPR analysis was run at 25° C. and a flow rate of 50 μl/min with 60 seconds association and 200-400 seconds dissociation time. Data were corrected for DMSO excluded volume effects. All data were double-referenced for blank injections and reference surface using standard processing procedures and data processing and kinetic fitting were performed using Scrubber software, version 2.0c (BioLogic Software). Data were fitted using simple 1:1 binding model allowing for mass transport effects where appropriate.
For analysis of peptide binding, a Biacore 8k+ instrument was used with a CM5 chip (Cytiva). All experiments were carried out at 25° C. Anti-human IgG (Fc) antibody (Cytiva) was immobilized on all flow cells by standard amine coupling chemistry. The running buffer was HBS-N(Cytiva, 10 mM HEPES, 0.15 M NaCl, pH 7.4) and the flow rate was 10 μL/min. The carboxymethyl dextran surface was activated with a 1:1 ratio of 0.4 M 1-ethyl-3-(3-dimethylaminopropyl) carbodiimide hydrochloride (EDC)/0.1 M N-hydroxy succinimide (NHS) (Cytiva) for 420s. […] Residual activated groups were blocked with a 420 s injection of 1 M ethanolamine (pH 8.5). The final surface density was 3000-5000 RU. Fc-tagged human NKp46 was diluted to 0.1 μM in HBS-N and was captured on flow cell 2 only of the sensor chip at a flow rate of 10 μL/min to 500-1000 RU. The buffer was then changed to PBS-P+(Cytiva) supplemented with 2% DMSO. […] The flow rate was 50 μL/min with 60 s association and 400 s dissociation. Data were corrected for DMSO volume exclusion effects. All data were double-referenced against blank injections and reference surface response using standard processing procedures. Data processing and kinetic fitting was performed using Biacore Insight Evaluation Software with Extended Screening and Characterization Extension (Cytiva). Data were fitted using steady state affinity 1:1 binding model to determine KD. Data were fitted using kinetic 1:1 binding model to determine kinetic constants where appropriate.

T1 sequence (O76036 22-255 limits assumed): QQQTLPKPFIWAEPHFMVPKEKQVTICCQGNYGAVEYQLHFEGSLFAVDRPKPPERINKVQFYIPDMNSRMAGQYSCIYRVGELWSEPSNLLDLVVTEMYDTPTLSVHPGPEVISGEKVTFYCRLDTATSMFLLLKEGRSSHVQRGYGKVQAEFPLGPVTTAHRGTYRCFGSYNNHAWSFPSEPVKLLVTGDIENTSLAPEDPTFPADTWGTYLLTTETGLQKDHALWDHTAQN

Binder | Kd [nM]
ACNLQAPCM[Cba]TGKVCA-NH2 (linker 2-8-15 via TATA, scaffold TATA) [BCY18319] | 991
B1 | 2570
B2 | 354
ACDLTTHNCQWG[Tle]CA-NH2 (linker 2-9-14 via TATA, scaffold TATA) [BCY18289] | 572
ACNLQAPCM[tBuAla]TGKVCA-NH2 (linker 2-8-15 via TATA, scaffold TATA) [BCY18320] | 622
ACNLQAPCM[Cha]TGKVCA-NH2 (linker 2-8-15 via TATA; also: Cha: filing contradicts itself on L or D, scaffold TATA) [BCY18321] | 548
Ac-CNLQAPCMLTGKVC-NH2 (linker 1-7-14 via TATA (inferred), scaffold TATA) [BCY18293] | 3380
ACNLQAPC[Nle]LTGKVCA-NH2 (linker 2-8-15 via TATA, scaffold TATA) [BCY18314] | 3150
ACN[tBuAla]QAPCMLTGKVCA-NH2 (linker 2-8-15 via TATA, scaffold TATA) [BCY18307] | 2110
Ac-ACNLQAPCMLTGKVCA-NH2 (linker 2-8-15 via TATA (inferred), scaffold TATA) [BCY18294] | 3260
ACNLQA[NMeA]CMLTGKVCA-NH2 (linker 2-8-15 via TATA, scaffold TATA) [BCY18312] | 1810
B3 | 1500
ACDLTTHNCQWG[tBuAla]CA-NH2 (linker 2-9-14 via TATA, scaffold TATA) [BCY18290] | 4890
ACNLQAPCMLTGKVCA-NH2 (linker 2-8-15 via TATA; also: scaffold TATA, TATB or TBMT, scaffold TATA) [BCY15099] | 1120
ACNLQAPCMLT[dA]KVCA-NH2 (linker 2-8-15 via TATA (inferred), scaffold TATA) [BCY18322] | 466
ACNLQAPCMLTAKVCA-NH2 (linker 2-8-15 via TATA; also: scaffold TATA, TATB or TBMT, scaffold TATA) [BCY18303] | 2750
ACNLQAPCMFTGKVCA-NH2 (linker 2-8-15 via TATA; also: scaffold TATA, TATB or TBMT, scaffold TATA) [BCY18317] | 2080
ACNLQAPCLLTGKVCA-NH2 (linker 2-8-15 via TATA; also: scaffold TATA, TATB or TBMT, scaffold TATA) [BCY18313] | 2750
ACNLQAPCMLTGRVCA-NH2 (linker 2-8-15 via TATA; also: scaffold TATA, TATB or TBMT, scaffold TATA) [BCY18323] | 2340
ACNLQAPCMLTGKACA-NH2 (linker 2-8-15 via TATA; also: scaffold TATA, TATB or TBMT, scaffold TATA) [BCY18305] | 907
ACNLQAPCMLTGK[Tle]CA-NH2 (linker 2-8-15 via TATA, scaffold TATA) [BCY18325] | 854
ACNLQA[Hyp]CMLTGKVCA-NH2 (linker 2-8-15 via TATA, scaffold TATA) [BCY18311] | 795
B4 | 878
ACDLTTHNCQWG[Chg]CA-NH2 (linker 2-9-14 via TATA, scaffold TATA) [BCY18291] | 2850
ACNLQA[cisHyp]CMLTGKVCA-NH2 (linker 2-8-15 via TATA, scaffold TATA) [BCY18310] | 802
